The text below walks through data of a protein production outcome set (Wang et al. 2014).

The series can be described thus: label from the status in PepcDB records.
Turning to “MAYNPKILQKPKEGEEITIKDNKLHVPNHPIIPFIEGDGIGSDITPAMIKVVDSAVQKAYKGEKKIAWYEVFVGEKCYQKFKDYKELSPEEQWLLPDTIEAINHYKVSIKGPLTTPIGEGFRSLNVALRQKMDLYVCLRPVRWYGSPSPVKEPQKVDMVIFRENSEDIYAGIEWQEGSAEAKKLIHFLQNELKVKKIRFPESSGIGVKPISKEGTERLVRKAIEYAIDNDKPSVTFVHKGNIMKYTEGAFMKWGYALAQKEFNAQVIDKGPWCSLKNPKNGKEIIIKDMIADAFLQQILLRPSEYSVIATMNLNGDYISDALAAMVGGIGIAPGANLNDTVGMFEATHGTAPKYAGLDKVNPGSIILSAEMMLRHMGWVEAADLIVSAMEKAIKSKKVTYDFARLMDGAKEVKCSEFASVMIENM”, the protein production result is recorded as “failed”.

Take “MAYSACFLHQSALASSAARSSSSSSSQRHVSLSKPVQIICKAQQSHEDDNSAVSRRLALTLLVGAAAVGSKVSPADAAYGEAANVFGKPKTNTDFLPYNGDGFKVQVPAKWNPSKEIEYPGQVLRFEDNFDATSNLNVMVTPTDKKSITDYGSPEEFLSQVNYLLGKQAYFGETASEGGFDNNAVATANILESSSQEVGGKPYYYLSVLTRTADGDEGGKHQLITATVNGGKLYICKAQAGDKRWFKGARKFVESAATSFSVA”: the protein production result is recorded as “failed”.

Take “MAYTDPAQRNQVTVLQVGYSRQEEGDESAMRANCTCTLVRCRDGTNIIVDTLTAWDGDHLRSLLGQQGLGVDDIHVVVCSHGHSDHIGCNYLFQKARMHLVGACASHHDLYMDHLGSGNPDEQLALDSNAEVVVRRSPGHTLSCVSVLVENSQLGGRVGITGDLFERREDIDDENIWMDAGSENEKVQREERSKMAQLCEFIIPGHGPMFSVTQSMRCKLKEDATSNT”: the protein production entry was “failed”.

As for “MAYVLTETSAGYALLKASDKKIYKSSSLIQDLDSSDKVLKEFKIAAFSKFNSAANALEEANSIIEGKVSSQLEKLLEEIKKDKKSTLIVSETKLANAINKLGLNFNVVSDAVTLDIYRAIKEYLPELLPGMSDNDLSKMSLGLAHSIGRHKLKFSADKVDVMIIQAIALLDDLDKELNTYAMRCKEWYGWHFPELAKIVTDSVAYARIILTMGIRSKASETDLSEILPEEIEERVKTAAEVSMGTEITQTDLDNINALAEQIVEFAAYREQLSNYLSARMKAIAPNLTQLVGELVGARLIAHSGSLISLAKSPASTIQILGAEKALFRALKTKHDTPKYGLLYHASLVGQATGKNKGKIARVLAAKAAVSLRYDALAEDRDDSGDIGLESRAKVENRLSQLEGRDLRTTPKVVREAKKVEMTEARAYNADADTAKAASDSESDSDDEEEEKKEKKEKKRKRDDDEDSKDSKKAKKEKKDKKEKKEKKEKKEKKEKKEKKEKKSKKEKKEKK”, the protein production entry is on record as “failed”.

“MCAEFVERRLAAILAADVVGYSRLLEANEEETLNALRQHRRELFDPAVAIHGGHIIKVMGDGFLVEFGSVLSAARCAVEIQRGMLERNIGIPGDRHFAFRIGLNLGDIVFDEDDFHGDGINVAVRLQALAAPGGIACSAAVRHEVANKLDLGFADQGAMTVKNISRPVHVYFADWGNAPSSEEVPLTAGGHTRAPVNKPSVAVLPFANISNDPEQDFFSDGITEDLITDLSNVSGLFVLSRNTVFTWKGRSENLQRIAAELGVAYIVEGSVRKAGNQVRINAELIEAASDGHVWAARYDRDLTDIFEMQDEIVKAIVGQLKVKLLPEEKRAIEQAPTESVEAYTHFLRGREYYHIASRSNHLMARQSFARAIELDPGYARAYAGIAVCDARLRSQFGAEIPVEDILANTATALVIDPNLAEAYAAKGFALAVAGNRTEAVSAFAQALSLDANCHEANRYYAEFCVTEGQFELAATHFQRAMEIKPADYGAPIMLVNVLRSLGQIDKASSYARIALKRAEEELRLHPENANVACLGATALAFLGVRDTALEWLARSLATDPDDINIQYNAACTYALLGEIDRAIDLLEVWMPQVGIEMRLWFKNDSDLDPIRSHPRYLKLVSLSE”: the protein production entry is reported as “failed”.

Consider “MCDYDEPLYLISVVAKILGVHPQTLRQYEKEGLIEPSRTDGKMRLYSQRDMDKIKTILRLTRDMGVNLAGVDIILRLKEKLDELDNLNKELQDALHKHSKNTKTPTKNLNTPTNFYELILFKK”, for which the protein production result was “failed”.

As to “MCHSGTFHLTAGESVEWVLTWAPSFEPHPPMPDYTRSLESTLSFWASWVEELPHQRLYDAEVRRSMLVLRALTDLQTGGIVAAPTTSLPEDFGGIRNWDYRYVWLRDSALTIEALVEYGFSQAALQWRTWLLRAIAGDPENLRIMYGLGGERHLPERELQHLRGYENSVPVRVGNGAAEQYQADVVGEVMVALETIRRAGCLEDEFSWGMQKAILDFQEANFDRKDQGIWEMRSEPQYFTHGRAMMWAGFDRGIKAIEEFNLDGPIERWRELRAKLREEIMTNGFNEEIQSFTQCYDNTQVDASLLQLAQIGFIGFDDPKMLSTVARIEQELLDAHGFLHRYHTDGSDGLAGDEYPFLICSFWLVEQYASSNRLDEAKEKMNRILAVQSPLGLLAEEYSTHHGRLAGNYPQAFSHIGLISAARAINFEEARNRLEHHHHHH”, the protein production result was “failed”.

Consider “MCKPPMRLLTQTGLPRSSERQIRILEIVTGNRKGKHQPKPISKPQPNISMPKIIEAIYENGVFKPLQKVNFRPGSKVRIVIQEDKKEILRKYKGVFGKAEVEELREYEGEVMLLEHHHHHH”, for which the protein production entry was “failed”.

In the case of “MCLGIPARVVEVLDGPLPMAVVDMAGEQRPCSVMYVPEVQVGQFVLLQNGYAMEVLDEKSAQESLATIAEFNLVQQVQLAPRE”, the protein production entry is “failed”.

Take “MCPYITRRNDVMNDTFDYIFGYALSTALARYWVNPDGSQGGIVSIDAKIDASVMIGKDAVVFPDANIAERACIAEKVCIGNAVRIGKHAMIDHGASIGDRSNIGERSRIYQDSFIGENAVIAARACIGEKVYIGNFVSLAKDSIIDDGVNIGERSSIGERTRIRQGSFIRKGCVIRQRSVIAKRAYIDEGVYIGNVVRIGEESMIHRRSRIGSGARIGGSVCIGVYCRIDGSVRIGQHADIGEWVNIDGHARIGNFARIGEWSRIGGRANIAAHVVLEKQSIIHSETCIQDASKTSVDMPKDAGI”: the protein production entry is listed as “failed”.

With “MCSYARATDANGESFIYCRTWQGQFFRFKLEDRVYDYVTTFAKSDACLATDPDDPTKIYCALNEYNKITCIDLTKNPEDSGFETDVCGIQGPGAYQDGHVSVARLNNPQQILSMHDPETGEKVIYICDANNNCVRMYNMETKLMSTVAGIGGKSGYAAGNPTVSRMNRPYGICITPENDIYVADAGNKVIMKLAFMLEHHHHHH”, the protein production result is given as “failed”.

Regarding “MCTPFIFVVYAKSKYLCVLISNEMGKNKLEKFADMASYPHVFEYPYSAVDNVPFDMKGKWHQEFFGNDHPIVLELGCGRGEYTVGLGRMFPDKNFIAVDIKGSRMWTGATESLQAGMKNVAFLRTNIEIIERFFAAGEVSEIWLTFSDPQMKKATKRLTSTYFMERYRKFLKPDGIIHLKTDSNFMFTYTKYMIEANQLPVEFITEDLYHSDLVDDILSIKTYYEQQWLDRGLNIKYIKFRLPLEHHHHHH”, the protein production entry is recorded as “failed”.

“MCVHTRKPDGLHPKPVSHCPVIDTGQSEWRSFTFTTICMGFRPRQAYRQPSPIANETENTMSNSNIQQEAQDIHDQLPESVDASPEDIEERLTTLVDDYRVPLDEAQRSVVSTYLSDSDVDRDDVSSENENQQVDLEEITEAEQWVDITAKVADLWEPRSDSIAQVGLLGDETGTIKFTKWAKSDLEALTEGQVYRLGNVVTDEYQGQYSVKLNRTTTIEALDQDIEVGDDTTDAEGALVDIQSGSGLIKRCPEDDCTRVLQNGRCSEHGEGEGEFDLRIKGVIDNGDTVQEVIFDKEATEQVADITLAQAQEMAMDALDTSVVADEIREVTLGRYYRVQGPELGRYLLVNEFEQLAEMHDPEQLLITARSILEHHHHHH”: the protein production result was “not failed”.

For “MCVSSSIQTAILDWQCVDGIDIPVSRQFGDVYFSKDNGLLETRHVFLNGNNLTERLADLKPYQYFCVGETGFGTGLNILAVWQLWQQVRPDNHSHLHVISVEKFPLSKSDLERALRAWPELIILAEQLIEQYPFPIAGCHRLNFPDERFSLDLWLGDAHDVFPSIVKTHSVDAWFLDGFAPSCNPELWETQVLNQIVRLSDYGTTFASFSVAGILKRGLKAHGIHISRPRGFGHKREMLKAIWPFPDHESTTTVKGNQPSTQQHFAVIGAGIAGLHCAWSLAQRGHRVTLVDQSQPLSGASGNPLALLNPKLCPITQCHDHLMVLCWQYARRFYQNFEAFRLIQVNQLALKASDSLLNLAEQYPKDVLDAHSAQQSPLETQYDYLTLHYAGVISPQLFCNQVLQHPLIEFKQFKINQIIEIDGTVQLLSSEQAILESNAAIVCCARESGKLFEQYPTLKPIRGQVSWFEQHTFPFAPDQAFSYGGYCMQLHPQQLILGASFHPQRDDDEVLLEDHVHNFNLIHSVFPAYAQTLPPVEEWHGRASVRAQSPDYFPLVGQLQDHSKLFTLAGLGSKGYLFAPLNSEILVAHILGEACPVSANLLQKLNPQRFLKKVKIKKPYYSS”, the protein production result is listed as “failed”.

With “MDAARFPADARVRVLARRFPPYHRDSPCLAILDRFLHDPTLSAAAVVDDAMRPVGLIDRYSLVEQFLHPYSRDLYHKHSIAAFMDPEPVIVEADSSIDDLSRIIIDAGMRHMVSGFIVTEDGLYLGIGSGHDLFEEVANRKQNHLYHLAHYDPLTSLPNRLLLNDRLKRACLRGQRGGYRIALLFIDLDRFKLVNDTLGHAAGDQLLQGVAGRFAACVRKVDTVARLGGDEFTVLLEPVQGPDEALAVAAKLAQSLERPFLIQNHEITTSASIGVVLFPEHDATVEGLMRKADAAMYCAKREGRNRFALFTEEMNSTVVERVTLESYLNAALEKGEFCCHFQPQMATADDRIVGVEALLRWTNPVLGRVPPLKFIPVAEDTGLILPLGLWALETACAQQVRWLSQGLPPLRMAVNISPLQFRNREFCDQVRAIVQRTGIRAEHLELELTESAVMADAESSVGILRELRDSGIRLAIDDFGTGYSSLSYLRKFPLDRLKIDRSFVSGIDRIPANELIVKAIVALGGSLGLDVIAEGVETPEELECIERCGCSEYQGFRLSEPLTAEDFAHWFEDSGYVLEHHHHHH”, the protein production entry was “failed”.

As for “MDAEKKSAHFRQISSYKPQLLVLSSIQENPSSKISEKANIKADNDAEIGVFGAEKYFSMKLDHVDSTADITKQHEKENTHDHPNANPNPNPNPHPHPHPQLTKTTSSRSKTSRHGTPSVRSESSCNSQTFLMRINNHNENKQRKMNDTSISFGGFRCYGPCSGVKTVHTDPKNSCKSRNSDRDFVAYDARKHNDKPRLHFEAKKADFHAQEKISLPIQRSDIAMNLERKLSLLTWDAIPNQLSTKNNNHNNNGNNSSMSSNTQEEETASVASSDLFEIENITSSVYEPSEASIGWSVVTGSMADQSVISDFDMMKRVTRNGPVVKTKPVIGEKVRSAGFLSGCKSHKAVSVVDSSRKVKETAKVDHHEMSHQKKFKTEIRIQDLSFL”, the protein production entry was “failed”.
